The source of these data is patent US20160287732A1, “TUMOR THERAPY BY BISPECIFIC ANTIBODY PRETARGETING” (IMMUNOMEDICS, INC., priority 2015, published 2016).

Read-outs that look alike come from different tables or passages of the source. Numbered stars: 1 amine (or outer) side, 2 acyl side, 3 side chain; on linkers, the order of the positions; unused ones are H or OH. Square brackets hold non-standard residues; d marks the D form. Side chains are listed from the residue outwards. Ends that are not written are not given here. Peptide text beside a SMILES is read from it. * marks the point of attachment. X1 = CCc1c2c(nc3ccc(O)cc13)-c1cc3c(c(=O)n1C2)COC(=O)[C@@]3(CC)OC(=O)*; DOTA = O=C(O)CN1CCN(CC(=O)O)CCN(CC(=O)*)CCN(CC(=O)O)CC1; NH(2-(imidazol-4-yl)ethyl) = c1ncc(CCN*)[nH]1; Suc = O=C(CCC(=O)[*:2])[*:1]

In one series the test system is PKA. Conditions: cited from earlier work.
Series [1] in a line: ^111In IMP 453 biodistribution in scLS174T tumor-bearing nude mice, with or without TF2 pretargeting. In kind it is in vivo. Conditions: nude, mouse. An excerpt: (§1) The higher uptake in the kidneys of pretargeted mice is probably due the presence of bispecific antibody in the blood or kidney. […] In the absence of TF2, there was little uptake of labeled peptide into the tumor (Table 5).

The subject of series [2] is LS174 human colon cancer cell line. Described as above. The series is classed as in vivo. Conditions: for Tissue uptake, Kidney / Tissue uptake, Tumor: 3 Hr.
Source text: as §1

Series [3] concerns the target DDD of the RII form of PKA (Homo sapiens, UniProt P13861). Conditions: cited from earlier work.
A further series addresses RII isoform of PKA (Homo sapiens, UniProt P13861). The note with it: cited from earlier work.
In another series the target is RIIα dimers (Homo sapiens, UniProt P13861). Conditions: read-out: Affinity / binding constant; cited from earlier work.
For series [4], the system named is human colorectal adenocarcinoma xenografts (LS 174T). Description: Pretargeting study with ^125I-TF2 and ^99mTc-IMP-245 in mice bearing s.c. LS 174T xenografts. In kind it is in vivo, female athymic nude mice. The note with it: pretargeted with TF2. As for the experimental part: A pretargeting study was performed with TF2 in female athymic nude mice bearing s.c. human colorectal adenocarcinoma xenografts (LS 174T). Cells were expanded in tissue culture until enough cells had been grown to inject 55 mice s.c. with 1×10^7 cells per mouse. After one week, tumors were measured and mice assigned to groups of 5 mice per time-point. The mean tumor size at the start of this study was 0.105±0.068 cm^3. Twenty mice were injected with 80 μg ^125I-TF2 (500 pmoles, 2 μCi) and 16 h later administered ^99mTc-IMP-245 (40 μCi, 92 ng, 50 pmoles). The mice were sacrificed and necropsied at 0.5, 1, 4, and 24 h post-peptide injection. In addition, 3 mice of the 24 h time-point groups were imaged on a γ-camera at 1, 4, and 24 h post-injection. As a control, 3 additional mice received only ^99mTc-IMP-245 (no pretargeting) and were imaged at 1, 4, and 24 h post-injection, before being necropsied after the 24 h imaging session. Tumor as well as various tissues were removed and placed in a γ-counter to determine % ID/g in tissue at each time-point.

The target in another series is TF2 (human). Description: in vitro binding assay, format and partner not described; TF2 (anti-CEA x anti-HSG) is the pretargeting antibody of the example.
Another series can be described thus: in vivo. More on the design: species or system mice. The note with it: mouse. As for the experimental part: (§2) IMP288 was labeled with ^213Bi and in vitro binding characteristics (IC50, Kd, internalization) were compared with those of ^177Lu-IMP288. Tumor targeting of ^213Bi-IMP288 was studied in mice with s.c. LS174T xenografts that were pretargeted with TF2 bispecific antibody. Finally, the effect of ^213Bi-IMP288 (2.5-14 MBq) on the growth of LS174T tumors was assessed.

The subject of another series is s.c. LS174T xenografts. Description: in vivo. Conditions: mouse. More on the design: species or system mice. The procedure:
as §2

The subject of a further series is LS174T tumors. The experiment in a line: Effect of ^213Bi-IMP288 on growth of TF2-pretargeted LS174T tumors. The series is classed as in vivo, nude mice. Conditions: single injection; 5 nmol TF2 then 0.28 nmol ^213Bi-IMP288. The procedure:
FIG. 5. Growth curves of subcutaneous LS174T xenografts in nude mice. Mice were injected with 5 nmol TF2 bispecific antibody, followed by a single injection of 0.28 nmol ^213Bi-IMP288 or PBS.
as §2

The mark [5] stands for this setting: blood, pretargeted with TF2, read-out: Tissue uptake, Blood.
Where [6] appears, read: kidney, pretargeted with TF2, read-out: Tissue uptake, Kidney.
Where [7] appears, read: large intestine, pretargeted with TF2, read-out: Tissue uptake, Lg. Int.
The mark [8] stands for this setting: liver, pretargeted with TF2, read-out: Tissue uptake, Liver.
The mark [9] stands for this setting: lung, pretargeted with TF2, read-out: Tissue uptake, Lung.
The mark [10] stands for this setting: small intestine, pretargeted with TF2, read-out: Tissue uptake, Sm. Int.
The mark [11] stands for this setting: spleen, pretargeted with TF2, read-out: Tissue uptake, Spleen.
[12] abbreviates: stomach, pretargeted with TF2, read-out: Tissue uptake, Stomach.
Setting [13] is: tumor, pretargeted with TF2, read-out: Tissue uptake, Tumor.

Sequence of DDD of the RII form of PKA (P13861 whole entry, canonical isoform): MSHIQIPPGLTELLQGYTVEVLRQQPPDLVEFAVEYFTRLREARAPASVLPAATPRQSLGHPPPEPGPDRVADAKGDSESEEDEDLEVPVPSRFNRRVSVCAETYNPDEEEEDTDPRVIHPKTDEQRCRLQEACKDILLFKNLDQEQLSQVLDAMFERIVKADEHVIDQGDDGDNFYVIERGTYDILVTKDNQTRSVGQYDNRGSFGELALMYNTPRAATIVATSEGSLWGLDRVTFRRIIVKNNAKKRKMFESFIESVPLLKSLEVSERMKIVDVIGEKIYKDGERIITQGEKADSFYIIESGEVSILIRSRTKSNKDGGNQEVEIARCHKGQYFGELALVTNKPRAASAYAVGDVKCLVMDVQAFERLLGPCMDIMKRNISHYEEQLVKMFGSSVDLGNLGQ
Sequence of RIIα dimers (P13861 whole entry): as the sequence (P13861 whole entry, canonical isoform) above
Sequence of RII isoform of PKA (P13861 whole entry, canonical isoform): as above
Sequence of TF2 (human) (heavy, as listed by the source, chain 1 of 2): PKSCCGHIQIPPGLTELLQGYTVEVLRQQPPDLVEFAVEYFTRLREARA
Sequence of TF2 (human) (heavy, as listed by the source, chain 2 of 2): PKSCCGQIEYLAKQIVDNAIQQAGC

Regarding FEELAWKIAKMIWSDVFQQC [PV-38], in the series with PKA, the PKA isoform preference entry was “higher affinity for RI”.
Consider `CCc1c2c(nc3ccc(O)cc13)-c1cc3c(c(=O)n1C2)COC(=O)[C@@]3(CC)OC(=O)SC[C@@H](NC(=O)CN1CCN(CC(=O)O)CCN(CC(=O)O)CCN(CC(=O)O)CC1)C(=O)N[C@H](C)C(=O)N[C@H](CCCCNC(=O)CNC(=O)CCC(=O)NCCc1cnc[nH]1)C(=O)N[C@H](Cc1ccc(O)cc1)C(=O)N[C@H](CCCCNC(=O)CNC(=O)CCC(=O)NCCc1cnc[nH]1)C(N)=O` [^111In IMP 453, metal not drawn] ({DOTA}-[dC](X1)[dA][dK]([Gly-Suc-NH(2-(imidazol-4-yl)ethyl)])[dY][dK]([Gly-Suc-NH(2-(imidazol-4-yl)ethyl)])-NH2), for which the tissue uptake at 3 h in [1] (setting [5]) was 0.29 ± 0.03 %ID/g; in [1] (blood, without bsMAb, read-out: Tissue uptake, Blood), 0.24 ± 0.01 %ID/g; in series [1] (setting [6]), 21.1 ± 4.14 %ID/g; in [1] (kidney, without bsMAb, read-out: Tissue uptake, Kidney) it was 9.97 ± 0.94 %ID/g; in series [1] (setting [7]) it was 1.23 ± 1.41 %ID/g; in series [1] (large intestine, without bsMAb, read-out: Tissue uptake, Lg. Int.), 0.52 ± 0.27 %ID/g. In addition, the tissue uptake at 3 h in series [1] (setting [8]) amounted to 0.56 ± 0.08 %ID/g; in [1] (liver, without bsMAb, read-out: Tissue uptake, Liver), 0.37 ± 0.18 %ID/g; in [1] (setting [9]) it was 0.56 ± 0.1 %ID/g; in series [1] (lung, without bsMAb, read-out: Tissue uptake, Lung), 0.31 ± 0.14 %ID/g; in series [1] (setting [10]), 0.68 ± 0.45 %ID/g; in series [1] (small intestine, without bsMAb, read-out: Tissue uptake, Sm. Int.), 0.2 ± 0.1 %ID/g. For the same molecule, the tissue uptake at 3 h in [1] (setting [11]) worked out at 0.37 ± 0.11 %ID/g; in series [1] (spleen, without bsMAb, read-out: Tissue uptake, Spleen), 0.22 ± 0.07 %ID/g; in [1] (setting [12]), 0.41 ± 0.33 %ID/g; in series [1] (stomach, without bsMAb, read-out: Tissue uptake, Stomach), 0.11 ± 0.06 %ID/g; in series [1] (setting [13]), 28.3 ± 4.03 %ID/g; in [1] (tumor, without bsMAb, read-out: Tissue uptake, Tumor), 0.37 ± 0.09 %ID/g. The tissue uptake at 24 h in series [1] (setting [5]) stood at 0.09 ± 0.04 %ID/g; in series [1] (setting [6]), 10 ± 2.45 %ID/g; in series [1] (setting [7]), 0.23 ± 0.05 %ID/g; in series [1] (setting [8]) it was 0.53 ± 0.19 %ID/g; in [1] (setting [9]) it was 0.18 ± 0.07 %ID/g; in series [1] (setting [10]) it was 0.22 ± 0.09 %ID/g. In addition, the figures for the tissue uptake at 24 h in series [1] (setting [11]), in series [1] (setting [12]) and in series [1] (setting [13]) were 0.66 ± 0.89 %ID/g, 0.2 ± 0.12 %ID/g and 15.4 ± 1.18 %ID/g, respectively. Also, the tissue uptake at 48 h was found to be 0.04 ± 0.01 %ID/g in [1] (setting [5]); 7.11 ± 1.17 %ID/g in series [1] (setting [6]); 0.16 ± 0.07 %ID/g in series [1] (setting [7]); 0.36 ± 0.06 %ID/g in series [1] (setting [8]); 0.14 ± 0.03 %ID/g in series [1] (setting [9]); 0.12 ± 0.03 %ID/g in [1] (setting [10]). The tissue uptake at 48 h in [1] (setting [11]) stood at 0.25 ± 0.07 %ID/g; in series [1] (setting [12]), 0.07 ± 0.01 %ID/g; in [1] (setting [13]), 9.69 ± 1.97 %ID/g. Moreover, the “Tissue uptake, Kidney” value in [2] (pretargeted with TF2) stood at 21 % ID/g; in series [2] (without bsMAb) it was 9.97 % ID/g. In addition, the results for the “Tissue uptake, Tumor” value in series [2] (pretargeted with TF2) and in [2] (without bsMAb) were 28 % ID/g and “little uptake”, respectively. Moreover, the “Initial kidney uptake eliminated” value in series [2] (by 24 hr, pretargeted with TF2) was found to be 50%. Further, the Route of clearance result in [2] (pretargeted with TF2) is reported as “Most of the peptide was cleared by urinary excretion”.
Turning to “PEDAELVRLSKRDVENAVLKAVQQY [AKAP7δ-L308D-pep]”, in series [3], the “Affinity for the RII DDD sequence” value is on record as “particularly high affinities”.
QIEYVAKQIVDYAIHQA [SuperAKAP-IS]: the “Selectivity for the RII isoform of PKA compared with the RI isoform” value with RII isoform of PKA is given as “five order of magnitude higher”.
On to “PEDAELVRLSKRLVENAVLKAVQQY [AKAP7δ-wt-pep]”, for which the “Affinity for the RII DDD sequence” value in series [3] is reported as “particularly high affinities”.
As for DLIEEAASRIVDAVIEQVKAAGAY [Ht-31], the PKA isoform preference entry in the series on PKA is recorded as “greater affinity for the RII isoform”.
Consider QIEYLAKQIVDNAIQQA [AKAP-IS], for which, on RIIα dimers, the Kd is 0.4 nM. In series [3], the “Affinity for the RII DDD sequence” value is listed as “particularly high affinities”.
In the case of “IMP-245: di-HSG-based peptide effector labeled with ^99mTc (FKYKK; not fully specified; also: labelled with 99mTc)”, the Tumor uptake in [4] (0.5 h post-peptide injection) is listed as 22±3 % ID/g; in series [4] (1 h post-peptide injection) it was 30±14 % ID/g; in series [4] (4 h post-peptide injection), 25±4 % ID/g; in [4] (24 h post-peptide injection) it was 16±3 % ID/g.
As to IMP288 (peptide), the IQ with TF2 (human) is 0.8 nM.
“PEDAELVRTSKRLVENAVLKAVQQY [AKAP7δ-L304T-pep]”: the “Affinity for the RII DDD sequence” value in series [3] is “particularly high affinities”.
LEQYANQLADQIIKEATE [RIAD]: in the series on PKA, the PKA isoform preference result is “higher affinity for RI”.
`NC(=O)[C@@H](CCCCNC(=O)CNC(=O)CCC(=O)NCCc1c[nH]cn1)NC(=O)[C@@H](CCC(=O)O)NC(=O)[C@@H](CCCCNC(=O)CNC(=O)CCC(=O)NCCc1c[nH]cn1)NC(=O)[C@@H](Cc1ccc(O)cc1)NC(=O)CN1CCN(CC(=O)O)CCN(CC(=O)O)CCN(CC(=O)O)CC1` [^213Bi-IMP288, metal not drawn] ({DOTA}-[dY][dK]([Gly-Suc-NH(2-(imidazol-4-yl)ethyl)])[dE][dK]([Gly-Suc-NH(2-(imidazol-4-yl)ethyl)])-NH2) showed a tissue uptake at 0.25 h in the series “in vivo” of 9.3 ± 2 %ID/g. Also, in the series with s.c. LS174T xenografts, the “Tumor targeting relative to ^177Lu-IMP288” value is “comparable”. Moreover, the Tumor growth result with LS174T tumors is “significantly inhibited”.
